Assay results published in patent US20210380680A1 (ZLLP, published 2021).
Read-outs that look alike come from different tables or passages of the source.

Tests used:
[1] = molecular target: T1, human Claudin 18.2 (CLDN18.2) (human, UniProt P56856-2 1-261); test: FACS on CHO-CLDN18.2 cells
T1 construct: whole, on cells; recombinantly expressed on CHO, HEK293, NCI-N87, NUGC4 or PANC-1 cells; also called CHO-CLDN18.2

[2] = molecular target: T1, human Claudin 18.2 (CLDN18.2); test: cell-based or functional assay
[3] = molecular target: T1, human Claudin 18.2 (CLDN18.2); test: cell-based or functional assay; remark: listed apart in the source
[4] = molecular target: T1, human Claudin 18.2 (CLDN18.2); test: FACS on CHO-CLDN18.2 cells; remark: listed apart in the source

Binder | EC50 [1] [nM] | further results
364D1A7-H2L3 (antibody, V domains shown, humanized IgG; constant regions not specified) VH: EVQLVESGGGLVQPGGSLRLSCAASGFTFSSFGMHWVRQAPGKGLEWVAYISSGSGSIYYADTVKGRFTISRDNPKNSLYLQMNSLRAEDTAVYYCATSYYYGNALEYWGQGTTVTVSS VL: DVVLTQSPDSLAVSLGERATINCKSSQSLFNVGNQKNYLTWYQQKPGQTPKLLIYWASTRKSGVPDRFSGSGSGTDFTLTISSLQAEDVAVYYCQNVYSYPLTFGGGTKVEIK | 4.4 | –
364D1A7-H4L5 (antibody, V domains shown, humanized IgG; constant regions not specified) VH: DVQLVESGGGLVQPGGSLRLSCAASGFTFSSFGMHWVRQAPGKGLEWVAYISSGSGSIYYADTVKGRFTLSRDNPKNTLYLQMNSLRAEDTAVYYCATSYYYGNALEYWGQGTTVTVSS VL: DVVLTQSPDSLAVSLGERATISCKSSQSLFNVGNQKNYLTWYQQKPGQTPTLLIYWASTRKSGVPDRFTGSGSGTDFTLTISSLQAEDVAVYYCQNVYSYPLTFGAGTKVEIK | 4.38 | % ADCC @ 6.67 nM, NCI-N87-CLDN18.2, FcR-TANK [2]: 12%; ADCC EC50, NCI-N87-CLDN18.2, FcR-TANK [2]: 0.34 nM; % specific cytotoxicity @ 6.67 nM, NUGC4-CLDN18.2, PBMC [3]: 26.4%; ADCC EC50, NUGC4-CLDN18.2, PBMC [3]: 6.4 nM
364D1A7-H1L4 (antibody, V domains shown, humanized IgG; constant regions not specified) VH: EVQLVESGGGLVQPGGSLRLSCAASGFTFSSFGMHWVRQAPGKGLEWVSYISSGSGSIYYADTVKGRFTISRDNAKNSLYLQMNSLRAEDTAVYYCATSYYYGNALEYWGQGTTVTVSS VL: DVVLTQSPDSLAVSLGERATISCKSSQSLFNVGNQKNYLTWYQQKPGQTPTLLIYWASTRKSGVPDRFSGSGSGTDFTLTISSLQAEDVAVYYCQNVYSYPLTFGGGTKVEIK | 4.03 | –
364D1A7-H1L3 (antibody, V domains shown, humanized IgG; constant regions not specified) VH: EVQLVESGGGLVQPGGSLRLSCAASGFTFSSFGMHWVRQAPGKGLEWVSYISSGSGSIYYADTVKGRFTISRDNAKNSLYLQMNSLRAEDTAVYYCATSYYYGNALEYWGQGTTVTVSS VL: DVVLTQSPDSLAVSLGERATINCKSSQSLFNVGNQKNYLTWYQQKPGQTPKLLIYWASTRKSGVPDRFSGSGSGTDFTLTISSLQAEDVAVYYCQNVYSYPLTFGGGTKVEIK | 4.1 | –
364D1A7-H1L2 (antibody, V domains shown, humanized IgG; constant regions not specified) VH: EVQLVESGGGLVQPGGSLRLSCAASGFTFSSFGMHWVRQAPGKGLEWVSYISSGSGSIYYADTVKGRFTISRDNAKNSLYLQMNSLRAEDTAVYYCATSYYYGNALEYWGQGTTVTVSS VL: DIVLTQSPDSLAVSLGERATINCKSSQSLFNVGNQKNYLTWYQQKPGQTPKLLIYWASTRKSGVPDRFSGSGSGTDFTLTISSLQAEDVAVYYCQNVYSYPLTFGGGTKVEIK | 6.9 | –
364D1A7-H2L5 (antibody, V domains shown, humanized IgG; constant regions not specified) VH: EVQLVESGGGLVQPGGSLRLSCAASGFTFSSFGMHWVRQAPGKGLEWVAYISSGSGSIYYADTVKGRFTISRDNPKNSLYLQMNSLRAEDTAVYYCATSYYYGNALEYWGQGTTVTVSS VL: DVVLTQSPDSLAVSLGERATISCKSSQSLFNVGNQKNYLTWYQQKPGQTPTLLIYWASTRKSGVPDRFTGSGSGTDFTLTISSLQAEDVAVYYCQNVYSYPLTFGAGTKVEIK | 3.35 | –
364D1A7-H2L2 (antibody, V domains shown, humanized IgG; constant regions not specified) VH: EVQLVESGGGLVQPGGSLRLSCAASGFTFSSFGMHWVRQAPGKGLEWVAYISSGSGSIYYADTVKGRFTISRDNPKNSLYLQMNSLRAEDTAVYYCATSYYYGNALEYWGQGTTVTVSS VL: DIVLTQSPDSLAVSLGERATINCKSSQSLFNVGNQKNYLTWYQQKPGQTPKLLIYWASTRKSGVPDRFSGSGSGTDFTLTISSLQAEDVAVYYCQNVYSYPLTFGGGTKVEIK | 6.14 | % ADCC @ 6.67 nM, NCI-N87-CLDN18.2, FcR-TANK [2]: 9.4%; ADCC EC50, NCI-N87-CLDN18.2, FcR-TANK [2]: 0.22 nM; % specific cytotoxicity @ 6.67 nM, NUGC4-CLDN18.2, PBMC [3]: 26.6%; ADCC EC50, NUGC4-CLDN18.2, PBMC [3]: 9.69 nM
364D1A7-H4L4 (antibody, V domains shown, humanized IgG; constant regions not specified) VH: DVQLVESGGGLVQPGGSLRLSCAASGFTFSSFGMHWVRQAPGKGLEWVAYISSGSGSIYYADTVKGRFTLSRDNPKNTLYLQMNSLRAEDTAVYYCATSYYYGNALEYWGQGTTVTVSS VL: DVVLTQSPDSLAVSLGERATISCKSSQSLFNVGNQKNYLTWYQQKPGQTPTLLIYWASTRKSGVPDRFSGSGSGTDFTLTISSLQAEDVAVYYCQNVYSYPLTFGGGTKVEIK | 3.85 | –
364D1A7-H3L2 (antibody, V domains shown, humanized IgG; constant regions not specified) VH: EVQLVESGGGLVQPGGSLRLSCAASGFTFSSFGMHWVRQAPGKGLEWVAYISSGSGSIYYADTVKGRFTLSRDNPKNSLYLQMNSLRAEDTAVYYCATSYYYGNALEYWGQGTTVTVSS VL: DIVLTQSPDSLAVSLGERATINCKSSQSLFNVGNQKNYLTWYQQKPGQTPKLLIYWASTRKSGVPDRFSGSGSGTDFTLTISSLQAEDVAVYYCQNVYSYPLTFGGGTKVEIK | 4.05 | –
364D1A7-H3L3 (antibody, V domains shown, humanized IgG; constant regions not specified) VH: EVQLVESGGGLVQPGGSLRLSCAASGFTFSSFGMHWVRQAPGKGLEWVAYISSGSGSIYYADTVKGRFTLSRDNPKNSLYLQMNSLRAEDTAVYYCATSYYYGNALEYWGQGTTVTVSS VL: DVVLTQSPDSLAVSLGERATINCKSSQSLFNVGNQKNYLTWYQQKPGQTPKLLIYWASTRKSGVPDRFSGSGSGTDFTLTISSLQAEDVAVYYCQNVYSYPLTFGGGTKVEIK | 3.54 | –
364D1A7-H2L4 (antibody, V domains shown, humanized IgG; constant regions not specified) VH: EVQLVESGGGLVQPGGSLRLSCAASGFTFSSFGMHWVRQAPGKGLEWVAYISSGSGSIYYADTVKGRFTISRDNPKNSLYLQMNSLRAEDTAVYYCATSYYYGNALEYWGQGTTVTVSS VL: DVVLTQSPDSLAVSLGERATISCKSSQSLFNVGNQKNYLTWYQQKPGQTPTLLIYWASTRKSGVPDRFSGSGSGTDFTLTISSLQAEDVAVYYCQNVYSYPLTFGGGTKVEIK | 3.94 | –
364D1A7-H2L1 (antibody, V domains shown, humanized IgG; constant regions not specified) VH: EVQLVESGGGLVQPGGSLRLSCAASGFTFSSFGMHWVRQAPGKGLEWVAYISSGSGSIYYADTVKGRFTISRDNPKNSLYLQMNSLRAEDTAVYYCATSYYYGNALEYWGQGTTVTVSS VL: DIVMTQSPDSLAVSLGERATINCKSSQSLFNVGNQKNYLTWYQQKPGQPPKLLIYWASTRKSGVPDRFSGSGSGTDFTLTISSLQAEDVAVYYCQNVYSYPLTFGGGTKVEIK | 3.47 | –
364D1A7-H4L1 (antibody, V domains shown, humanized IgG; constant regions not specified; also called 364D1A7-H41L) VH: DVQLVESGGGLVQPGGSLRLSCAASGFTFSSFGMHWVRQAPGKGLEWVAYISSGSGSIYYADTVKGRFTLSRDNPKNTLYLQMNSLRAEDTAVYYCATSYYYGNALEYWGQGTTVTVSS VL: DIVMTQSPDSLAVSLGERATINCKSSQSLFNVGNQKNYLTWYQQKPGQPPKLLIYWASTRKSGVPDRFSGSGSGTDFTLTISSLQAEDVAVYYCQNVYSYPLTFGGGTKVEIK | 4.12 | % ADCC @ 6.67 nM, NCI-N87-CLDN18.2, FcR-TANK [2]: 9.3%; ADCC EC50, NCI-N87-CLDN18.2, FcR-TANK [2]: 0.31 nM; % specific cytotoxicity @ 6.67 nM, NUGC4-CLDN18.2, PBMC [3]: 26.4%; ADCC EC50, NUGC4-CLDN18.2, PBMC [3]: 7.58 nM
364D1A7-H3L4 (antibody, V domains shown, humanized IgG; constant regions not specified) VH: EVQLVESGGGLVQPGGSLRLSCAASGFTFSSFGMHWVRQAPGKGLEWVAYISSGSGSIYYADTVKGRFTLSRDNPKNSLYLQMNSLRAEDTAVYYCATSYYYGNALEYWGQGTTVTVSS VL: DVVLTQSPDSLAVSLGERATISCKSSQSLFNVGNQKNYLTWYQQKPGQTPTLLIYWASTRKSGVPDRFSGSGSGTDFTLTISSLQAEDVAVYYCQNVYSYPLTFGGGTKVEIK | 4.78 | –
364D1A7-H4L2 (antibody, V domains shown, humanized IgG; constant regions not specified) VH: DVQLVESGGGLVQPGGSLRLSCAASGFTFSSFGMHWVRQAPGKGLEWVAYISSGSGSIYYADTVKGRFTLSRDNPKNTLYLQMNSLRAEDTAVYYCATSYYYGNALEYWGQGTTVTVSS VL: DIVLTQSPDSLAVSLGERATINCKSSQSLFNVGNQKNYLTWYQQKPGQTPKLLIYWASTRKSGVPDRFSGSGSGTDFTLTISSLQAEDVAVYYCQNVYSYPLTFGGGTKVEIK | 4.51 | –
364D1A7-H4L3 (antibody, V domains shown, humanized IgG; constant regions not specified) VH: DVQLVESGGGLVQPGGSLRLSCAASGFTFSSFGMHWVRQAPGKGLEWVAYISSGSGSIYYADTVKGRFTLSRDNPKNTLYLQMNSLRAEDTAVYYCATSYYYGNALEYWGQGTTVTVSS VL: DVVLTQSPDSLAVSLGERATINCKSSQSLFNVGNQKNYLTWYQQKPGQTPKLLIYWASTRKSGVPDRFSGSGSGTDFTLTISSLQAEDVAVYYCQNVYSYPLTFGGGTKVEIK | 4.56 | –
364D1A7-H1L5 (antibody, V domains shown, humanized IgG; constant regions not specified) VH: EVQLVESGGGLVQPGGSLRLSCAASGFTFSSFGMHWVRQAPGKGLEWVSYISSGSGSIYYADTVKGRFTISRDNAKNSLYLQMNSLRAEDTAVYYCATSYYYGNALEYWGQGTTVTVSS VL: DVVLTQSPDSLAVSLGERATISCKSSQSLFNVGNQKNYLTWYQQKPGQTPTLLIYWASTRKSGVPDRFTGSGSGTDFTLTISSLQAEDVAVYYCQNVYSYPLTFGAGTKVEIK | 3.96 | % ADCC @ 6.67 nM, NCI-N87-CLDN18.2, FcR-TANK [2]: 9.1%; ADCC EC50, NCI-N87-CLDN18.2, FcR-TANK [2]: 0.26 nM; % specific cytotoxicity @ 6.67 nM, NUGC4-CLDN18.2, PBMC [3]: 27.5%; ADCC EC50, NUGC4-CLDN18.2, PBMC [3]: 8.17 nM
364D1A7-H3L5 (antibody, V domains shown, humanized IgG; constant regions not specified) VH: EVQLVESGGGLVQPGGSLRLSCAASGFTFSSFGMHWVRQAPGKGLEWVAYISSGSGSIYYADTVKGRFTLSRDNPKNSLYLQMNSLRAEDTAVYYCATSYYYGNALEYWGQGTTVTVSS VL: DVVLTQSPDSLAVSLGERATISCKSSQSLFNVGNQKNYLTWYQQKPGQTPTLLIYWASTRKSGVPDRFTGSGSGTDFTLTISSLQAEDVAVYYCQNVYSYPLTFGAGTKVEIK | 4.53 | –
413H9F8-H1L2 (antibody, V domains shown, humanized IgG; constant regions not specified) VH: EVQLVESGGGLVQPGGSLRLSCAASGFTFSSFGMHWVRQAPGKGLEWVSYISSGSSPIYYVDKLKGRFTISRDNAKNSLYLQMNSLRAEDTAVYYCARAGYAVRNALDYWGQGTLVTVSS VL: DIVMTQSPDSLAVSLGERATINCKSSQSLLNVGNQKNYLAWYQQKPGQPPKLLIYGASTRESGVPDRFSGSGSGTDFTLTISSLQAEDVAVYFCQNDLFYPLTFGGGTKVEIK | – | EC50 [4]: 2.18 nM
